The text below walks through data of paper PMC5389574 (Nucleic Acids Research, 2016).

This assay addresses T1, recombinant Rpb4/Rpb7-6His (S. cerevisiae, UniProt P20433 1-221; P34087 1-171).
T1 sequence (looked up) 1: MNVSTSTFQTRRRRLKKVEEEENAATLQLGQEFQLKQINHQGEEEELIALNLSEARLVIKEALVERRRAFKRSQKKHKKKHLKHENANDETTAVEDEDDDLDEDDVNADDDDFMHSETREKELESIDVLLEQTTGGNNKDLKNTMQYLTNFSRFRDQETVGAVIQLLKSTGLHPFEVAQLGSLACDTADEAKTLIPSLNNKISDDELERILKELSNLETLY
T1 sequence (looked up) 2: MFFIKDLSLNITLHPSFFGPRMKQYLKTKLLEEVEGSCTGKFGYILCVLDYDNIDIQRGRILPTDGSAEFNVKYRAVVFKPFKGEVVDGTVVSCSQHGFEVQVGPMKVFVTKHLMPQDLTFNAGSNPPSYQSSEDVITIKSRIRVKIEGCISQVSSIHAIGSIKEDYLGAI
In words: pull-down.

B1: recombinant Sub1 (natural protein, S. cerevisiae, UniProt P54000 1-292, looked up)
chain: MSYYNRYRNKRRSDNGGGNLSNSNNNNGGMPSGLSASDAIFDLGKNKRVTVRQFRNINLIDIREYYLDSSTGEMKPGKKGISLTEDLYDELLKHRLNIDEALRRLGSKRPKTKMVRLLSDDEYEDDNNNDSTNNDKDKNGKDKNSPKKRREDKSKASNESHDLEPRSKKKKPAPPTLLPHEENIQNAEREANATLIIPGQAGRKQQEERKQKEKEEAEEAKAKAVAEQEKEAKAKEKIAEPEPEPVPTLQAKKEDIVSNINESKDANSSDEEFAQSLEAEMNKAEDDISEEE
For the molecule B1, the binding result is recorded as “binds”.
